The assay has as its target dual specificity anti-activin A/B antibody (human IgG1 format) (human). In words: BLI. A general note: Biolayer interferometry detects binding as a change in optical thickness at a sensor tip.

B1: mature human activin A (ligand)
chain: GLECDGKVNICCKKQFFVSFKDIGWNDWIIAPSGYHANYCEGECPSHIAGTSGSSLSFHSTVINHYRMRGHSPFANLKSCCVPTKLRPMSMLYYDDGQNIIKKDIQNMIVEECGCS
As usually defined, the Kd is the constant that tells how readily two partners part at equilibrium. High values mean weaker binding, low ones tighter binding. In turn, B1 displayed a Kd of 0.13 nM. This lies in the sub-nanomolar range.

Source of the values: publication doi:10.1101/2025.06.13.659133.
